Measured values: patent publication US20230183334A1, “THERAPEUTIC ANTIBODY FORMULATION” (published 2023)

Biological target: T1, IL-17A (human, UniProt Q16552)
T1 sequence: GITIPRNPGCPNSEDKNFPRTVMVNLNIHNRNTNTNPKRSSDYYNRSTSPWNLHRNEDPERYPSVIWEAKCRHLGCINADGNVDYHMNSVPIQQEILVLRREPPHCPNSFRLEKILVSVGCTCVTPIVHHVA
Experiment: cell-based or functional assay

Relative potency of Formulation A (% relative to Formulation B; ratio of EC50s), 1 month at 5° C.: 101% | Relative potency of Formulation A (% relative to Formulation B; ratio of EC50s), 1 month at 25° C.: 98% | Relative potency of Formulation A (% relative to Formulation B; ratio of EC50s), 1 month at 35° C.: 101% | Relative potency of Formulation A (% relative to Formulation B; ratio of EC50s), 6 months at 5° C.: 103% | Relative potency of Formulation A (% relative to Formulation B; ratio of EC50s), 12 months at 5° C.: 98%
B1: ixekizumab (antibody, V domains shown)
VH: QVQLVQSGAEVKKPGSSVKVSCKASGYSFTDYHIHWVRQAPGQGLEWMGVINPMYGTTDYNQRFKGRVTITADESTSTAYMELSSLRSEDTAVYYCARYDYFTGTGVYWGQGTLVTVSS
VL: DIVMTQTPLSLSVTPGQPASISCRSSRSLVHSRGNTYLHWYLQKPGQSPQLLIYKVSNRFIGVPDRFSGSGSGTDFTLKISRVEAEDVGVYYCSQSTHLPFTFGQGTKLEIKR
